In patent US11697680B2, “Anti-GP73 antibodies and immunoconjugates” (CUREAB GMBH, priority 2016, dated 2023):
Entries after “also recorded” stand apart in the source; their conditions may differ.

Key:
[1] = test system: HEK293 GP73-His full length cells; experiment: Furin blockage experiment: sGP73 in cell culture supernatant (Up-converting Phosphor Technology); assay type: cell-based, human; details: 31.3 ug/ml or 62.5 ug/ml; after 96 hours
Procedure: FIG. 23 Measurement of sGP73 in cell culture supernatant after treatment of 293HEK GP73-His full length cells with Bevacizumab or G2-2opti (IgG1). Furin cleavage is a prerequisite for sGP73 to appear in the supernatant.
HEK293 GP73-His full length cells were seeded in 96 well plates 1500 cells per well and cultured overnight. Next day, medium was changed and cells were treated with Bevacizumab 31.3 ug/ml, Bevacizumab 62.5 ug/ml, G2-2opti(IgG1) 31.3 ug/ml or G2-2opti (IgG1) 62.5 ug/ml. To examine furin cleavage inhibition the respective antibody concentrations were chosen in a range that had no impact on cell proliferation. After 96 hours the supernatants were collected for measurement of sGP73 exploiting the Up-converting Phosphor Technology (UCP) and the remaining cell layer was used in a proliferation assay with PrestoBlue reagent (Thermofisher) described in Example 8.
For sGP73 detection each supernatant was diluted 1:1 in Hotgen dilution buffer containing an anti GP73 UCP labelled antibody. […] GP73 concentrations were deduced from differences of light emission at the C and T line measured by inserting the test cassette into the Hotgen Up-converting Phosphor Technology (UCP) Analyser.

HuH7 cells = experiment: Internalization of pHrodo Green labeled antibodies after pre-incubation with conditioned media containing soluble GP73; assay type: cell-based, human; details: 10 ug/ml pHrodo Green labeled antibody pre-incubated over night, 24 h at 37° C.
Procedure: Antibody internalization was measured by FACS using the pH-sensitive dye pHrodo Green coupled to each antibody. […] The internalization of G2-2 that binds to rGP73 is not altered as described in Example 6.
Labeled antibodies were purified by size exclusion (40K MWCO). A non binding Isotype Antibody that was not labeled with pHrodo® Green STP Ester (Iso.) was used as control for background fluorescence. 10 ug/ml of each antibody was pre-incubated over night at 4° C. with either fresh culture media or conditioned media. As conditioned media served either supernatant from HEK 293 or HEK 293 GP73-myc cells cultured for 72 hours, that was dialyzed (10 k MWCO) against 1 L fresh media each. To confirm the presence of secreted soluble GP73 after dialysis supernatants were analysed by Western Blot using an anti-myc antibody. 300 ul/well of each pre-incubated antibody was given to 0.6×10^6HuH7 cells growing in 24 well plates for 24 h at 37° C. and 5% CO2. Cells were washed and analysed by FACS.

[2] = test system: HuH7 (human hepatocellular carcinoma); experiment: Cell viability / proliferation with PrestoBlue reagent; assay type: cell-based; details: 0.125 mg/ml to 2 mg/ml, after 72 hrs
Procedure: FIG. 13A Proliferation of HuH7 cells (human hepatocellular carcinoma) after treatment with different antibodies. HuH7 cells were treated with G2-2, G2-2 plus Cetuximab, mG2-2, mG2-2 plus Cetuximab, Cetuximab or control antibody each in increasing concentrations from 0.125 mg/ml to 2 mg/ml. Proliferating cells were measured after 72 hrs. […] This effect was independent of the Fc part i.e. human IgG1 in G2-2 or murin IgG2a in mG2-2 as described in Example 8.
FIG. 13B Proliferation of HuH7 cells (human hepatocellular carcinoma), 4T1 cells (murin breast carcinoma) and CaCo2 cells (human colorectal carcinoma) after treatment with different antibodies. The three cell lines were treated with G2-1, G2-1 plus Cetuximab, Cetuximab, Bevacizumab or Bevacizumab plus Cetuximab 2 mg/ml total. Proliferating cells were measured after 72 hrs.
Cells from the cell lines HuH7 (human hepatocellular carcinoma), 4T1 (murin breast carcinoma) and CaCo2 (human colorectal carcinoma) were cultured under standard conditions in Dulbecco's modified Eagle Medium (DMEM) supplemented with 10% fetal calf serum (FCS) at 37° C. with 5% CO2. […] Fluorescence was read at 615 nm to quantify cell viability. […]
To test the effect of G2-1 on different cell lines, HuH7, 4T1 and CaCo2 cells were transferred to 96 well plates. […] Cell viability was quantified after 72 hours using PrestoBlue reagent and measuring the fluorescence at 615 nm.

| Molecule | sGP73 in cell culture supernatant [1] | also measured |
| --- | --- | --- |
| Bevacizumab: the isotype control [reference compound] | no influence on sGP73 levels | – |
| G2-4: hybridoma antibody against peptide AA 347-366 of human GP73 (sGP73); VH/VL SEQ ID NOs: 18 and 19 (antibody, V domains shown, G2-4 heavy chain variable region (VH); G2-4 light chain variable region (VL)) VH: QVQLEESGGGLVQPGGSLRLSCATSGFTFTDYYMSWVRQPPGKALEWLGFIRNKAKGYTTEYSASVKGRFTISRDNSQSILYLQMNTLRAEDSATYYCARDPSTNYWYFDVWGAGTTVTVSS VL: DIVLTQSPSSLAVSAGEKVTMTCKSSQSLLNSRTRKNYLAWYQQKPGQSPKLLIYWASTRESGVPDRFTGSGSGTDFTLTISSVQAEDLAVYYCKQSYNLYTFGGGTKLEIKR | – | effect of conditioned media containing soluble GP73 on antibody internalization / cell surface binding (HuH7 cells): reduces antibody binding; also recorded: reduces internalization |
| mG2-2: G2-2 variable regions with murine IgG2a heavy chain and human Igk light chain constant regions (antibody) heavy: EVQLLQSGGGVVQPGRSLRLSCAASGFTFSSYGMSWVRQAPGKGLEWVAVISYDGSNKYYADSVKGRFTISRDNSKNTLYLQMNSLRAEDTAVYYCAREGSAGMDVWGQGTTVTVSSASTTAPSVYPLAPVCGDTTGSSVTLGCLVKGYFPEPVTLTWNSGSLSSGVHTFPAVLQSDLYTLSSSVTVTSSTWPSQSITCNVAHPASSTKVDKKIEPRGPTIKPCPPCKCPAPNLLGGPSVFIFPPKIKDVLMISLSPIVTCVVVDVSEDDPDVQISWFVNNVEVHTAQTQTHREDYNSTLRVVSALPIQHQDWMSGKEFKCKVNNKDLPAPIERTISKPKGSVRAPQVYVLPPPEEEMTKKQVTLTCMVTDFMPEDIYVEWTNNGKTELNYKNTEPVLDSDGSYFMYSKLRVEKKNWVERNSYSCSVVHEGLHNHHTTKSFSRTPGK light: DIQMTQPSSLSASPGASASLTCTLRSDISVGFHRIYWYQQKPGSPPQYLLRYKSDSDKQQGSGVPSRFSGSKDASANAGILLISGLQSDDEADYYCVIWHTSGVVFGGGTKVEIKRTVAAPSVFIFPPSDEQLKSGTASVVCLLNNFYPREAKVQWKVDNALQSGNSQESVTEQDSKDSTYSLSSTLTLSKADYEKHKVYACEVTHQGLSSPVTKSFNRGEC | – | cell proliferation / cell viability [2]: reduced depending on antibody concentration |
| G2-2opti (IgG1): G2-2 optimized for expression in mammalian cells by directed mutagenesis of framework; CDRs untouched (antibody, V domains shown) VH: QVQLVQSGGGVVQPGRSLRLSCAASGFTFSSYGMHWVRQAPGKGLEWVAVISYDGSNKYYADSVKGRFTISRDNSKNTLYLQMNSLRAEDTAVYYCAREGSAGMDVWGQGTTVTVSS VL: QAVLTQPSSLSASPGASASLTCTLRSDISVGFHRIYWYQQKPGSPPQYLLRYKSDSDKQQGSGVPSRFSGSKDASANAGILLISGLQSDDEADYYCVIWHTSGVVFGGGTKLTVL | decreases sGP73 secretion into supernatant; also recorded: reduce GP73 concentration | – |
